Stoichiometry N data for two substances are collected here from paper PMC7660908.

As a reminder, the stoichiometry N is the number of molecules, sites or subunits per partner or assembly.

The target of experiment [1] is AausFP1 (His-tag cleaved, crystallised) (Aequorea cf. australis). Kind of experiment: crystal structure; AausFP1 at 40 mg/ml, hanging drop, 0.7-1.3 M trisodium citrate, 0.2 M sodium chloride, 0.1 M Tris pH 6.5-8.0; 4 molecules in the asymmetric unit; interfaces analysed with PISA.
Experiment [2] concerns the target AausFP2 (His-tag removed with proteinase K, crystallised) (Aequorea cf. australis). Nature of the experiment: crystal structure; AausFP2 at 51 mg/ml, hanging drop, 14%-24% PEG 3350 trisodium citrate, 0.2 M sodium chloride, 0.1 M HEPES pH 7.3-8.2; 1 molecule in the asymmetric unit; interfaces analysed with PISA.

“AausFP1 (His-tag cleaved, crystallised) (natural protein)” gave a stoichiometry N in experiment [1] of 2.

In the case of “AausFP2 (His-tag removed with proteinase K, crystallised) (natural protein)”, the stoichiometry N in experiment [2] worked out at 2.
